The record followed here is paper PMC10392983, “Allosteric activation or inhibition of PI3Kγ mediated through conformational changes in the p110γ helical domain” (eLife, 2023).

Where “and” joins values, the source holds several entries; their conditions need not be identical. Identical values can stand only once.

Conditions in all cases: both partners purified
One test concerns the target T1, p110δ-p85 complex (Homo sapiens (assumed), UniProt O00329;O00459).
T1 construct: p110δ catalytic subunit of class IA PI3K; plasmid as previously described; p85 regulatory subunit; the legend says only p85; also called PI3Kδ
The test is described as follows: BLI; His-tagged NB7 (500 nM) immobilised on Anti-Penta-His biosensor; PI3K complexes in solution (dose response 50-1.9 nM; class IA comparison at 50 nM); 600 s association, 1200 s dissociation; 20 mM Tris pH 8.5, 100 mM NaCl, 50 mM ammonium sulfate, 0.1% BSA, 0.02% Tween 20; global fit to a 1:1 model. (In BLI a coated tip is dipped into the sample, and binding shifts an interference pattern.)

Test [1] deals with T2, p110γ-p101 complex (Homo sapiens p110γ; Sus scrofa p101, UniProt P48736;PDB).
T2 construct: Homo sapiens p110γ (PIK3CG), full-length; Sus scrofa p101 regulatory subunit of PI3Kγ; The purification tag stood on p101 only; also called PI3Kγ p110γ-p101; not shown: His10, N-terminal, cleaved; 2x Strep, N-terminal, cleaved
The test is described as above.
T2 sequence (P48736 whole entry, chain 1 of 2): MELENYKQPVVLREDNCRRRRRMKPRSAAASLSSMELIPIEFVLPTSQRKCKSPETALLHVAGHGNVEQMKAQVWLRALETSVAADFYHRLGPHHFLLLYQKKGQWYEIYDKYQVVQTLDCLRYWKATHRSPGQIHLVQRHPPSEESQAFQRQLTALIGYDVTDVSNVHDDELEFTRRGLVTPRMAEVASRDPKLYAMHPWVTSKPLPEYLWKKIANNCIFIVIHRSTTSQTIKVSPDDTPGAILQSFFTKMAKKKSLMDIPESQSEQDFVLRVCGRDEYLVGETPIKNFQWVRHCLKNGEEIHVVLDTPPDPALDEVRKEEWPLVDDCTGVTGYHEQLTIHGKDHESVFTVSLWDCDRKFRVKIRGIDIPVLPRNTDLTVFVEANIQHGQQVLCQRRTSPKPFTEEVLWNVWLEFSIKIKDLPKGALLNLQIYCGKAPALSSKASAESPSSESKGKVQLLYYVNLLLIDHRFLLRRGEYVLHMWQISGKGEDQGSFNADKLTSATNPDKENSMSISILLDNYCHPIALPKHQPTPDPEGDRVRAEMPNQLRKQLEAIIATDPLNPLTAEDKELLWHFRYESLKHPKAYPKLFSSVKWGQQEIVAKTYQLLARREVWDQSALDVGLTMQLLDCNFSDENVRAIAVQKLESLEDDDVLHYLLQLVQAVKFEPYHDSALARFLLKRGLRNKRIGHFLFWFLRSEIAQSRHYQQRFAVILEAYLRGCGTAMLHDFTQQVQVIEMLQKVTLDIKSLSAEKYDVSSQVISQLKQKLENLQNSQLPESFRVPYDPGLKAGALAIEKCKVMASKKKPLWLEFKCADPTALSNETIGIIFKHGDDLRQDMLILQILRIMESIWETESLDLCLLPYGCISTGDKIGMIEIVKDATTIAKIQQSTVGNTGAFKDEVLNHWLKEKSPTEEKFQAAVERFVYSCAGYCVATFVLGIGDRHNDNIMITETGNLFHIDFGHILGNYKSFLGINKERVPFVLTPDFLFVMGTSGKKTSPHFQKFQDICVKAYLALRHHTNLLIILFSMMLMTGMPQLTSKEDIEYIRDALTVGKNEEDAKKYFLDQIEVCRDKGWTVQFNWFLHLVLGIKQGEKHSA
T2 sequence (O02696 whole entry, chain 2 of 2, further chain): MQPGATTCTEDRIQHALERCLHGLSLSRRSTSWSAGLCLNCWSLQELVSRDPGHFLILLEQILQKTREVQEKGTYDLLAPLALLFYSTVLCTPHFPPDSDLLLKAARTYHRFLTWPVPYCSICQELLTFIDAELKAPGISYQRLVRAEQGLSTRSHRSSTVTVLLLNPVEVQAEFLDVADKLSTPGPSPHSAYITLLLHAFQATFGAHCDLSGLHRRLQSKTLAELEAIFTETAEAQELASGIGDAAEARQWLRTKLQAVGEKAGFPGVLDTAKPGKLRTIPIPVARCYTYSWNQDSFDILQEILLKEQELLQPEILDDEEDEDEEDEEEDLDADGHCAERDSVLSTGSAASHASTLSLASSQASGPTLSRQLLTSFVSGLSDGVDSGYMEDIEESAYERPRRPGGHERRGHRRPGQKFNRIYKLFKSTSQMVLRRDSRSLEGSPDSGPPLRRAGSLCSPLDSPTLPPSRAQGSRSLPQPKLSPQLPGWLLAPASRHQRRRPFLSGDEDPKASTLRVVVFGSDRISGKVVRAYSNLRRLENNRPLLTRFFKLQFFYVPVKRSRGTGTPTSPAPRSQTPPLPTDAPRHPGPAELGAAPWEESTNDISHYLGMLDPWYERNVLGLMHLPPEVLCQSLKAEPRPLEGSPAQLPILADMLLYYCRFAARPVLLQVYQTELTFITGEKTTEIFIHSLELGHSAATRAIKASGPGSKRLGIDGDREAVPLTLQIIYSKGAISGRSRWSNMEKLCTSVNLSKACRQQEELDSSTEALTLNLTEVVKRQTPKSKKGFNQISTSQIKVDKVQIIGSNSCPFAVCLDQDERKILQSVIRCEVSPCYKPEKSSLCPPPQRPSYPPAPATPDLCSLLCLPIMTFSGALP

The target of the next test is T3, p110β-p85 complex (Homo sapiens (assumed), UniProt P42338;O00459).
T3 construct: p110β catalytic subunit of class IA PI3K; plasmid as previously described; p85 regulatory subunit; the legend says only p85; also called PI3Kβ
Described as above.

In another test the target is T4, p110α-p85 complex (Homo sapiens (assumed), UniProt P42336;O00459).
T4 construct: p110α catalytic subunit of class IA PI3K; plasmid as previously described; p85 regulatory subunit; the legend says only p85; also called PI3Kα
Described as above.

A further test addresses T5, p110γ-p84 complex (Homo sapiens p110γ; Mus musculus p84, UniProt P48736;Q3U6Q4).
T5 construct: Homo sapiens p110γ (PIK3CG), full-length; Mus musculus p84 regulatory subunit of PI3Kγ; The purification tag stood on p84 only; also called PI3Kγ p110γ-p84; not shown: His10, N-terminal, cleaved; 2x Strep, N-terminal, cleaved
Described as above.

Test [2] has as its target T6, p110γ-p101 complex (Homo sapiens p110γ; Sus scrofa p101, UniProt P48736;PDB).
T6 construct: p110γ, Homo sapiens, from plasmid pMultiBac-hsp110γ-ssp101; p101 regulatory subunit, Sus scrofa, from plasmid pMultiBac-hsp110γ-ssp101; The purification tag stood on the N-terminus of p101 and was removed by TEV protease; also called p110gp101; not shown: 10x histidine, N-terminal, cleaved; 2x strep, N-terminal, cleaved
The test is described as follows: BLI; His-NB7 (500 nM) immobilised on Anti-Penta-His (HIS1K) biosensor, dipped into p110γ, p110γ-p84 or p110γ-p101 (50-1.9 nM); association 600 s, dissociation 1200 s; Octet buffer 20 mM Tris pH 8.5, 100 mM NaCl, 50 mM ammonium sulfate, 0.1% BSA, 0.02% Tween 20; 1:1 model; the sheet gives one set of constants for each analyte concentration (column Conc. (nM)).
T6 sequence (P48736 whole entry, chain 1 of 2): as the sequence (P48736 whole entry, chain 1 of 2) above
T6 sequence (O02696 whole entry, chain 2 of 2, further chain): as the sequence (O02696 whole entry, chain 2 of 2, further chain) above

T5 sequence (P48736 whole entry, chain 1 of 2): as the sequence (P48736 whole entry, chain 1 of 2) above
T5 sequence (Q3U6Q4 whole entry, chain 2 of 2): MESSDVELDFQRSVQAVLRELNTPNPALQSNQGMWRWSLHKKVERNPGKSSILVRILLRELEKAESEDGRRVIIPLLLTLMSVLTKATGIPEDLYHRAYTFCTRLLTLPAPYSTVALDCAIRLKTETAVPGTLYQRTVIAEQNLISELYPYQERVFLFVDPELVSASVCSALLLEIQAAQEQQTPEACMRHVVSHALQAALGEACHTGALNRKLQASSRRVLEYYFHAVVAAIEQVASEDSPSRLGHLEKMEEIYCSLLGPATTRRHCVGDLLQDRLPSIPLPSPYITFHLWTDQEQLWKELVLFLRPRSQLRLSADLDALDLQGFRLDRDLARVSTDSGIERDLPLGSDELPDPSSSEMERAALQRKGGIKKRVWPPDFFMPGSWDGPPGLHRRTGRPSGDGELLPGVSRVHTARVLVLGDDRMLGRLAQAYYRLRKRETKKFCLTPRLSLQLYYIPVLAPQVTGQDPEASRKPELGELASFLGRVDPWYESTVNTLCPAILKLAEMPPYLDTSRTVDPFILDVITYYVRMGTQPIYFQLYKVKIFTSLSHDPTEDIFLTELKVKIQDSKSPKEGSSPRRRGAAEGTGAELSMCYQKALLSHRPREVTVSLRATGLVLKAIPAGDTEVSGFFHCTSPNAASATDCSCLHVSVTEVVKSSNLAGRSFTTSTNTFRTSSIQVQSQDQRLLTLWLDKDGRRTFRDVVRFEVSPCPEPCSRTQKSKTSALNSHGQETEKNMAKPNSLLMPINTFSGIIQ

B1: Nanobody NB7-PIK3CG (VHH)
VHH: QVQLVESGGGLVQPGGSLRLSCAASGSIFSINAMGWYRQAPGKQRELVAHITSGGSTNYADSVKGRFTISRDNAKNTVYLQMNSLKPEDTAVYYCNEAGDPFLGSTWNGPPAFGSWGQGTQVTVSS
notes: the nanobody chain of PDB 8DP0 (deposited here); Expressed from a pMESy4 vector; also called His-NB7; nanobody 7; source: E. coli WK6 periplasm, purified (HisTrap, Superdex 75); not shown: His6, C-terminal, kept
Turning to B1, the binding result with p110δ-p85 complex, with p110β-p85 complex and with p110α-p85 complex was “no binding (tested: 50 nM)” throughout. Besides, the Kd with p110γ-p101 complex [1] and in the test with p110γ-p84 complex was approximately 2 nM throughout.

B2: Nanobody NB7-PIK3CG (VHH)
VHH: QVQLVESGGGLVQPGGSLRLSCAASGSIFSINAMGWYRQAPGKQRELVAHITSGGSTNYADSVKGRFTISRDNAKNTVYLQMNSLKPEDTAVYYCNEAGDPFLGSTWNGPPAFGSWGQGTQVTVSS
notes: Expressed from a pMESy4 vector; first described in Rathinaswamy et al., 2021b; also called His-NB7; nanobody 7; source: periplasm of WK6 E. coli, purified (HisTrap, Superdex 75); not shown: His6, C-terminal, kept
Turning to B2, the kon with p110γ-p101 complex [2] was 105000 M⁻¹ s⁻¹ and 111000 M⁻¹ s⁻¹ and 50200 M⁻¹ s⁻¹.

The term Kd denotes the equilibrium constant for the complex coming apart. A low value points to a tighter complex. A word on the kon: it is a measure of how fast the partners come together. Read a low kon as slower complex formation.
